The values below come from patent publication US20250084174A1 (AstraZeneca / MedImmune, published 2025).

The target of experiment [1] is T1, CCR5 (UniProt P51681 1-352, limits assumed).
T1 construct: whole, on cells; The cell line is not described
The experiment in a line: binding to cells expressing CCR5, fluorescence counts (FL1 Counts) against Log M.

Experiment [2] deals with T2, CXCR2 (UniProt P25025 1-360, limits assumed).
T2 construct: whole, on cells; The cell line is not described
T2 sequence (looked up): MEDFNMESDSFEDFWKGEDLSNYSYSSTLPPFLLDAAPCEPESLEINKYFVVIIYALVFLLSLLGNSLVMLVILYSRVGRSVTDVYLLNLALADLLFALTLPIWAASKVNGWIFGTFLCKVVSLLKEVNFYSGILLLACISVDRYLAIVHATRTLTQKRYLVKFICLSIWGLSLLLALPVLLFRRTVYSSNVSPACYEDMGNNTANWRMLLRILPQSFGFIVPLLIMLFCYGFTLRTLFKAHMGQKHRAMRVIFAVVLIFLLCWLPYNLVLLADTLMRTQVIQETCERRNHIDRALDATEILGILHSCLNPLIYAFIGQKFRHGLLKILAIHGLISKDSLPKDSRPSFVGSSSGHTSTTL
The experiment in a line: binding to cells expressing CXCR2, fluorescence counts (FL1 Counts) against Log M.

Experiment [3] deals with T3, CCR8 (UniProt P51685 1-355, limits assumed).
T3 construct: whole, on cells; The cell line is not described
As to the kind of experiment: binding to cells expressing CCR8, fluorescence counts (FL1 Counts) against Log M.

Experiment [4] concerns the target T4, human CCR9B (human, UniProt P51686 13-369).
T4 construct: Overexpressed on HEK cells; also called Hu B HEK; hCCR9 isoform B
T4 sequence: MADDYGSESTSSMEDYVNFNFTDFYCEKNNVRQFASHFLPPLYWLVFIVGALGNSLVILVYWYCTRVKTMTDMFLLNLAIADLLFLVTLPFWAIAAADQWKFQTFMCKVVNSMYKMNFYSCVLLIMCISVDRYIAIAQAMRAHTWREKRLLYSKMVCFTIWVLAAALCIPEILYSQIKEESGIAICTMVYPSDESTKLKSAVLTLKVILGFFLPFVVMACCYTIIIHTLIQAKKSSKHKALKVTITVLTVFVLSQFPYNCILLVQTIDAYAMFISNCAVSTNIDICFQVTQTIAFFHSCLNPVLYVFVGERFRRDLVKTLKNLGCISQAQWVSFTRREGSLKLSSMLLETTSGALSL
As to the kind of experiment: binding to HEK cells expressing human CCR9B, fluorescence counts (FL1 Counts) against Log M.

The target of experiment [5] is T5, CXCR1 (UniProt P25024 1-350, limits assumed).
T5 construct: whole, on cells; The cell line is not described
T5 sequence (looked up): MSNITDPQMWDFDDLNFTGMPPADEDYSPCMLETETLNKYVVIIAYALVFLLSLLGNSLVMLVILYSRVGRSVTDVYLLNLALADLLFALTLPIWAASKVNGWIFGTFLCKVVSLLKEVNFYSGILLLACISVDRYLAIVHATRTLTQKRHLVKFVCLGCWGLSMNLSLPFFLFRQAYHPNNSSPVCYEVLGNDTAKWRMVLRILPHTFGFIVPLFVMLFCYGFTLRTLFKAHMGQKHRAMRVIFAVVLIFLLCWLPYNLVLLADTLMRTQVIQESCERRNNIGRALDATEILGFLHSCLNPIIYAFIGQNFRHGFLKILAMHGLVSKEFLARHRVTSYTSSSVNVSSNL
The experiment in a line: binding to cells expressing CXCR1, fluorescence counts (FL1 Counts) against Log M.

Experiment [6] addresses T6, cynomolgus CCR9 (cynomolgus, UniProt Q0H741 1-369).
T6 construct: Overexpressed on HEK cells, or endogenous on cynomolgus PBMC; also called cynomolgus CCR9A; Cyno HEK
T6 sequence: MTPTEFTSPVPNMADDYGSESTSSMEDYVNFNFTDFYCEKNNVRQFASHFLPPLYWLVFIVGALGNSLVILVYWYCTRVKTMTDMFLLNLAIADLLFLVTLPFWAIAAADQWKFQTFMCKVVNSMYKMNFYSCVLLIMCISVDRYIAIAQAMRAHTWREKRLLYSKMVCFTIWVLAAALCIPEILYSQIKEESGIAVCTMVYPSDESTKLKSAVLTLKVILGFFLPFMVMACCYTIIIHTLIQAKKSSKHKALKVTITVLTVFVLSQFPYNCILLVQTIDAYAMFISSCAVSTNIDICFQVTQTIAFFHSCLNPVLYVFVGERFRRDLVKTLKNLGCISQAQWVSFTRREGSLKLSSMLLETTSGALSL
As to the kind of experiment: binding to HEK cells expressing cynomolgus CCR9, fluorescence counts (FL1 Counts) against Log M.

T1 sequence (P51681 whole entry): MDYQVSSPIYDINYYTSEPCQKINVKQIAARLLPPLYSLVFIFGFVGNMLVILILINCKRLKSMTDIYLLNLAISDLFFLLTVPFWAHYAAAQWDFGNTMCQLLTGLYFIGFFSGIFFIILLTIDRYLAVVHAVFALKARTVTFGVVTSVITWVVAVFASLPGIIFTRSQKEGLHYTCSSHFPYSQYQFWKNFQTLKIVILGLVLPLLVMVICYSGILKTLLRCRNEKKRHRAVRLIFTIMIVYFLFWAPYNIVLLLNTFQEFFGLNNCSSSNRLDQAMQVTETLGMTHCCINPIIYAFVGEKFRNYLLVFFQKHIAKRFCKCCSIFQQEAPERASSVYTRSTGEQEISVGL
T3 sequence (P51685 whole entry): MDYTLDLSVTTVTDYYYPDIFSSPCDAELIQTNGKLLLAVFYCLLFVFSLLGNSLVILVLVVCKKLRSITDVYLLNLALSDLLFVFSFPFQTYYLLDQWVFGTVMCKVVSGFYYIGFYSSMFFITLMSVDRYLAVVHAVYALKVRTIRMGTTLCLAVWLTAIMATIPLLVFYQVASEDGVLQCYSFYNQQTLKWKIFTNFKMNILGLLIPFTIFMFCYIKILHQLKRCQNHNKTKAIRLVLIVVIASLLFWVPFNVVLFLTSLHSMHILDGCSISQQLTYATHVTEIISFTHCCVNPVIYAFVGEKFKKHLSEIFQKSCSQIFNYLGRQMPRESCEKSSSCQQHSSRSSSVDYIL

B1: humanised AB1020243 afuc (AB1020243-fgl) (antibody, V domains shown)
VH: QVQLVQSGAEVKKPGASVKVSCKASGYTFTSYWMHWVRQAPGQGLEWIGVIYPGNSDTRYNQKFKGRVTITRDTSASTAYMELSSLRSEDTAVYYCTRDYYSNYVYYYAMDYWGQGTTVTVSS
VL: DIVMTQTPLSLPVTPGEPASISCRSSQSLVHSNGNTYLHWYLQKPGQSPQLLIYKVSNRFSGVPDRFSGSGSGTDFTLKISRVEAEDVGVYYCSQSTHVPWTFGQGTKLEIK
modifications: afucosylated form; in the LigandTracer assay DyLight 650 Maleimide on an engineered cysteine residue in the CH2 region
notes: Human IgG1 format is stated for LigandTracer; Full chains are not tied to the tested lot
The EC50 (read off the curve) is the concentration at which the effect is half-maximal. B1: the binding result in experiment [1] is listed as “no binding (tested: Log M about -6.5 (about 3e-7 M))”; in experiment [2] it was “no binding (tested: Log M about -6.5 (about 3e-7 M))”; in experiment [3] it was “no binding (tested: Log M about -6.5 (about 3e-7 M))”; in experiment [4], “binds”; in experiment [5] it was “no binding (tested: Log M about -6.5 (about 3e-7 M))”. Further, the “EC50 (read off the curve)” value in experiment [6] is ~0.4 nM.
